Measurements taken from patent publication US6379943, “High-efficiency Cre/loxp based system for construction of adenovirus vectors” (Merck & Co., Inc.).

Tests used:
[1] = target: Cre recombinase (Bacteriophage P1?) (UniProt P06956); test: cell_activity; details: plasmids lacking lox; 5 plaques in 293 without Cre, homologous recombination background
Cre recombinase = Cre recombinase (UniProt P06956 P06956:1-343); test: cell_activity; pCA36lox x pBHG10lox cotransfection; 168 plaques in 293Cre4 vs 4 in 293 (12 dishes each); details: tags: stably expressed in 293Cre4 cells; chain copies: 4; BamHI/BglII overhangs
Source text: The efficiency of Cre/lox mediated recombination was compared with that of homologous recombination, by measuring the numbers of virus plaques obtained from cotransfections of 293 cells versus the numbers obtained following cotransfections of 293Cre4 cells (see, for example, U.S. patent application Ser. No. 08/473,168, filed Jun. 7, 1995; see also WO96/40955, hereby incorporated by reference).
Coupled with the fact that the only infectious virus present in the transfected cell preparation are recombinants, rather than contaminating starting virus, the efficiency, cleanliness and convenience of this method in comparison to known methods represent significant advances in the art. Thus, with this new method it will be possible to reduce the amount of plasmid DNA used in cotransfections and reduce the number of dishes of 293 (293Cre) cells needed in cotransfections for rescue of viral vectors. It will also aid in the rescue of constructs which, for unknown reasons, might be otherwise difficult to rescue (e.g. rescue of vectors containing large foreign DNA inserts in E1 is often inefficient for reasons that are not known).

Cre recombinase (Bacteriophage P1?), sequence (P06956 whole entry): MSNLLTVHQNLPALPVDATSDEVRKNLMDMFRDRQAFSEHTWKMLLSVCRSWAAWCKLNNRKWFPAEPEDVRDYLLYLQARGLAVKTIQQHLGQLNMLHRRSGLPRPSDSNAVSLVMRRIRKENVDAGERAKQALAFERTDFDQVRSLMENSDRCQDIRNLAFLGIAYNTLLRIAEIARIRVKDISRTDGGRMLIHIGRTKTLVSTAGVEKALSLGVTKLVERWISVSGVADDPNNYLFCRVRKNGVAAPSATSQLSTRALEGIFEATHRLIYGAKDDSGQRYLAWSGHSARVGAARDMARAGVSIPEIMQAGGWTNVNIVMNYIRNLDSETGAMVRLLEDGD
Cre recombinase, sequence (P06956 whole entry, one chain of several): as the sequence (P06956 whole entry) above

Molecule: no-lox plasmid pair pCA36:pBHG10
- activity (plaques (12 dishes)) [1]: 7

B1: loxP linker AB3233/AB3234 (dsDNA)
DNA 1: GATCCAATAACTTCGTATAGCATACATTATACGAAGTTATAAGTACTGAATTCG
DNA 2: GATCCGAATTCAGTACTTATAACTTCGTATAATGTATGCTATACGAAGTTATTG
- activity (Cre recombinase): 35 fold over homologous recombination
